To fix the notation:
B1: glmS ribozyme (parent)
chain: AUAAAAGCGCCAGAACUACAGAAAUGUAGUUGACGAGGAGGAGGUUUAUCGAAUUUUCGGCGGAUGCCUCCAAA

Common to all, as to conditions: with glucosamine-6-phosphate
Variants of B1 are the subject of data set [1]. Put plainly: self-cleavage kobs at 40 uM GlcN6P; higher = faster cleavage; RNA array. A digest of the protocol: (§1)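 Tiles bearing barcoded ribozyme variants, transcribed in situ by E. coli RNA polymerase on sequenced MiSeq chips, were imaged over ~14 h at 37 °C using a hybridised Cy3 probe. Glucosamine-6-phosphate was supplied at 40 μM to 10 mM in HEPES/KCl/Mg(OAc)2 buffer. kobs came from one- or two-exponential decay fits to normalised per-tile medians, and weighted Michaelis–Menten fits then provided kcat and KM.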

Variants of B1 are the subject of data set [2]. Put plainly: self-cleavage kobs at 640 uM GlcN6P; higher = faster cleavage; RNA array. The procedure, abridged: as §1
Variants of B1 are the subject of data set [3]. Description: self-cleavage kobs at 2500 uM GlcN6P; higher = faster cleavage; RNA array. The procedure, abridged: as §1
In data set [4] the parent is B1. Put plainly: self-cleavage kobs at 160 uM GlcN6P; higher = faster cleavage; RNA array. The procedure, abridged:
as §1

Variants of B1 are the subject of data set [5]. Put plainly: self-cleavage kobs at 10000 uM GlcN6P; higher = faster cleavage; RNA array. A digest of the protocol: as §1

This note sets out measurements from the supplement of paper PMC7125110.

± gives the standard error. Fewer inactive variants are shown than the library holds.

On to C16A A42U G63U, for which the “self-cleavage kobs at 40 uM GlcN6P” value in the data set with glucosamine-6-phosphate [1] is less than 1e-05 s⁻¹. The “self-cleavage kobs at 640 uM GlcN6P” value with glucosamine-6-phosphate [2] was less than 1e-05 s⁻¹. Moreover, the “self-cleavage kobs at 2500 uM GlcN6P” value with glucosamine-6-phosphate [3] was less than 1e-05 s⁻¹.

As for C11U C16A G44C, the “self-cleavage kobs at 40 uM GlcN6P” value with glucosamine-6-phosphate [1] is less than 1e-05 s⁻¹. The “self-cleavage kobs at 640 uM GlcN6P” value with glucosamine-6-phosphate [2] is less than 1e-05 s⁻¹.

As for U46G A48U C68U, in the data set with glucosamine-6-phosphate [1], the “self-cleavage kobs at 40 uM GlcN6P” value is less than 1e-05 s⁻¹.

As to A6C A36C, in the data set with glucosamine-6-phosphate [1], the “self-cleavage kobs at 40 uM GlcN6P” value is less than 1e-05 s⁻¹. For the same variant, the “self-cleavage kobs at 160 uM GlcN6P” value with glucosamine-6-phosphate [4] was less than 1e-05 s⁻¹. Besides, in the data set with glucosamine-6-phosphate [5], the “self-cleavage kobs at 10000 uM GlcN6P” value is less than 1e-05 s⁻¹.

Turning to A15C U47G G51A U56C, the “self-cleavage kobs at 40 uM GlcN6P” value with glucosamine-6-phosphate [1] was less than 1e-05 s⁻¹. For the same variant, in the data set with glucosamine-6-phosphate [3], the “self-cleavage kobs at 2500 uM GlcN6P” value is less than 1e-05 s⁻¹. Further, in the data set with glucosamine-6-phosphate [5], the “self-cleavage kobs at 10000 uM GlcN6P” value is less than 1e-05 s⁻¹.

In the case of G13U A42C A53C C68A, in the data set with glucosamine-6-phosphate [1], the “self-cleavage kobs at 40 uM GlcN6P” value is less than 1e-05 s⁻¹.

On to A6G C70U, for which the “self-cleavage kobs at 40 uM GlcN6P” value with glucosamine-6-phosphate [1] is less than 1e-05 s⁻¹. Besides, the “self-cleavage kobs at 160 uM GlcN6P” value in the data set with glucosamine-6-phosphate [4] was less than 1e-05 s⁻¹.

On to G7A A12G U47A, for which, in the data set with glucosamine-6-phosphate [1], the “self-cleavage kobs at 40 uM GlcN6P” value was less than 1e-05 s⁻¹. Also, in the data set with glucosamine-6-phosphate [3], the “self-cleavage kobs at 2500 uM GlcN6P” value is less than 1e-05 s⁻¹.

G13U A53G G63A C68U: the “self-cleavage kobs at 40 uM GlcN6P” value in the data set with glucosamine-6-phosphate [1] is less than 1e-05 s⁻¹. The “self-cleavage kobs at 10000 uM GlcN6P” value with glucosamine-6-phosphate [5] was less than 1e-05 s⁻¹.

Turning to G38U C70U C71G, the “self-cleavage kobs at 40 uM GlcN6P” value with glucosamine-6-phosphate [1] turned out to be 8.76e-05 ± 2.7e-05 s⁻¹.

With U30C U49A G60C, the “self-cleavage kobs at 40 uM GlcN6P” value with glucosamine-6-phosphate [1] was less than 1e-05 s⁻¹. In the data set with glucosamine-6-phosphate [2], the “self-cleavage kobs at 640 uM GlcN6P” value is less than 1e-05 s⁻¹.

In the case of A6G G7C C16A G41U, in the data set with glucosamine-6-phosphate [1], the “self-cleavage kobs at 40 uM GlcN6P” value was less than 1e-05 s⁻¹.

As for G35U G60A, the “self-cleavage kobs at 40 uM GlcN6P” value with glucosamine-6-phosphate [1] was less than 1e-05 s⁻¹. The “self-cleavage kobs at 160 uM GlcN6P” value in the data set with glucosamine-6-phosphate [4] is less than 1e-05 s⁻¹. In the data set with glucosamine-6-phosphate [2], the “self-cleavage kobs at 640 uM GlcN6P” value is less than 1e-05 s⁻¹. The “self-cleavage kobs at 2500 uM GlcN6P” value in the data set with glucosamine-6-phosphate [3] is less than 1e-05 s⁻¹. In the data set with glucosamine-6-phosphate [5], the “self-cleavage kobs at 10000 uM GlcN6P” value is less than 1e-05 s⁻¹.

On to A42G U55A G63C, for which the “self-cleavage kobs at 40 uM GlcN6P” value in the data set with glucosamine-6-phosphate [1] is less than 1e-05 s⁻¹. Also, the “self-cleavage kobs at 2500 uM GlcN6P” value in the data set with glucosamine-6-phosphate [3] is less than 1e-05 s⁻¹.

On to G51U G63C, for which the “self-cleavage kobs at 40 uM GlcN6P” value with glucosamine-6-phosphate [1] was less than 1e-05 s⁻¹. For the same variant, the “self-cleavage kobs at 640 uM GlcN6P” value with glucosamine-6-phosphate [2] was less than 1e-05 s⁻¹. In the data set with glucosamine-6-phosphate [3], the “self-cleavage kobs at 2500 uM GlcN6P” value was less than 1e-05 s⁻¹. Further, the “self-cleavage kobs at 10000 uM GlcN6P” value with glucosamine-6-phosphate [5] was less than 1e-05 s⁻¹.

With A15G U30G A33G A48C, the “self-cleavage kobs at 40 uM GlcN6P” value in the data set with glucosamine-6-phosphate [1] is less than 1e-05 s⁻¹.

Regarding C34U A48G, the “self-cleavage kobs at 40 uM GlcN6P” value with glucosamine-6-phosphate [1] was less than 1e-05 s⁻¹. In addition, in the data set with glucosamine-6-phosphate [4], the “self-cleavage kobs at 160 uM GlcN6P” value is less than 1e-05 s⁻¹. The “self-cleavage kobs at 640 uM GlcN6P” value with glucosamine-6-phosphate [2] is less than 1e-05 s⁻¹. Moreover, the “self-cleavage kobs at 2500 uM GlcN6P” value in the data set with glucosamine-6-phosphate [3] is less than 1e-05 s⁻¹. Moreover, in the data set with glucosamine-6-phosphate [5], the “self-cleavage kobs at 10000 uM GlcN6P” value was less than 1e-05 s⁻¹.

Regarding A14C G29U C50G, the “self-cleavage kobs at 40 uM GlcN6P” value with glucosamine-6-phosphate [1] worked out at 0.000119 ± 3.7e-05 s⁻¹.

Consider C11G U55C, for which the “self-cleavage kobs at 40 uM GlcN6P” value with glucosamine-6-phosphate [1] is less than 1e-05 s⁻¹. The “self-cleavage kobs at 160 uM GlcN6P” value with glucosamine-6-phosphate [4] is less than 1e-05 s⁻¹. Moreover, the “self-cleavage kobs at 640 uM GlcN6P” value with glucosamine-6-phosphate [2] is less than 1e-05 s⁻¹.

With G60A G66A, the “self-cleavage kobs at 40 uM GlcN6P” value in the data set with glucosamine-6-phosphate [1] is less than 1e-05 s⁻¹. The “self-cleavage kobs at 160 uM GlcN6P” value with glucosamine-6-phosphate [4] was less than 1e-05 s⁻¹.

Regarding G60A G66U, the “self-cleavage kobs at 40 uM GlcN6P” value with glucosamine-6-phosphate [1] was less than 1e-05 s⁻¹. For the same variant, in the data set with glucosamine-6-phosphate [4], the “self-cleavage kobs at 160 uM GlcN6P” value is less than 1e-05 s⁻¹. In the data set with glucosamine-6-phosphate [2], the “self-cleavage kobs at 640 uM GlcN6P” value was less than 1e-05 s⁻¹. For the same variant, the “self-cleavage kobs at 10000 uM GlcN6P” value with glucosamine-6-phosphate [5] was less than 1e-05 s⁻¹.

Regarding G51A C61G, the “self-cleavage kobs at 40 uM GlcN6P” value with glucosamine-6-phosphate [1] was less than 1e-05 s⁻¹. For the same variant, in the data set with glucosamine-6-phosphate [4], the “self-cleavage kobs at 160 uM GlcN6P” value was less than 1e-05 s⁻¹.

As to C11G A48U G63C, the “self-cleavage kobs at 40 uM GlcN6P” value with glucosamine-6-phosphate [1] was less than 1e-05 s⁻¹. In the data set with glucosamine-6-phosphate [5], the “self-cleavage kobs at 10000 uM GlcN6P” value is less than 1e-05 s⁻¹.

Consider G35C C58A G62U, for which, in the data set with glucosamine-6-phosphate [1], the “self-cleavage kobs at 40 uM GlcN6P” value was less than 1e-05 s⁻¹.

On to G41U G44C, for which the “self-cleavage kobs at 40 uM GlcN6P” value with glucosamine-6-phosphate [1] is less than 1e-05 s⁻¹. In addition, in the data set with glucosamine-6-phosphate [4], the “self-cleavage kobs at 160 uM GlcN6P” value is less than 1e-05 s⁻¹. Also, in the data set with glucosamine-6-phosphate [2], the “self-cleavage kobs at 640 uM GlcN6P” value is less than 1e-05 s⁻¹. The “self-cleavage kobs at 2500 uM GlcN6P” value with glucosamine-6-phosphate [3] is less than 1e-05 s⁻¹. The “self-cleavage kobs at 10000 uM GlcN6P” value with glucosamine-6-phosphate [5] is less than 1e-05 s⁻¹.

Take G9C U56G: in the data set with glucosamine-6-phosphate [1], the “self-cleavage kobs at 40 uM GlcN6P” value is less than 1e-05 s⁻¹. For the same variant, the “self-cleavage kobs at 160 uM GlcN6P” value with glucosamine-6-phosphate [4] was less than 1e-05 s⁻¹. The “self-cleavage kobs at 640 uM GlcN6P” value with glucosamine-6-phosphate [2] is less than 1e-05 s⁻¹. Further, the “self-cleavage kobs at 2500 uM GlcN6P” value in the data set with glucosamine-6-phosphate [3] is less than 1e-05 s⁻¹. Also, in the data set with glucosamine-6-phosphate [5], the “self-cleavage kobs at 10000 uM GlcN6P” value was less than 1e-05 s⁻¹.
